From the supplement of paper PMC9170038 come the findings set out here.

For data set [1], the system named is MS2 coat protein. Put plainly: apparent KD of MS2 coat protein, switch ON state; designed switch direction (-1 OFF switch, 1 ON switch): 1; higher = weaker reporter binding. The note with it: FMN input: 0 or 200 uM; Eterna round: R93 (includes R88 designs). The method in brief: (§1)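 Apparent KD stands for the median, per design, of fits to normalised cluster binding curves. The curves came from titrating on-chip-transcribed RNA switches on Illumina sequencing clusters with SNAP-549-labelled MS2 coat protein, twofold from 0.7 or 1.5 nM to 3 µM. Buffer was 100 mM Tris-HCl pH 7.5, 80 mM KCl, 4 mM MgCl2, without or with constant ligand.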

Data set [2] relates to MS2 coat protein. The experiment in a line: apparent KD of MS2 coat protein, switch OFF state (with FMN for OFF switches, without FMN for ON switches); designed switch direction (-1 OFF switch, 1 ON switch): 1; higher = weaker reporter binding. The conditions noted are these: FMN input: 0 or 200 uM; Eterna round: R93 (includes R88 designs). The method in brief: as §1

As to “AAAAAAAAAACUCAGGAUAUAGAUUGUUGAACAUGAGGAUCACCCAUGUAGUGAAAAGCGAAAAACUAGAAGGGAGGAAAAAAAAA [SameState2-03]”, the “apparent KD of MS2 coat protein” value in the data set with MS2 coat protein [1] worked out at 30.5 nM; in the data set on MS2 coat protein [2], 63.3 nM.

Regarding “AAAAAAAAAGUCGAGGAUAUCCACAUGGUGACAUGAGGAUCACCCAUGUGAAGAAAAGCACAUGAGGAGAAGGCGACAAAAAAAA [Same State 2.7b (Tightrope mod)]”, the “apparent KD of MS2 coat protein” value in the data set on MS2 coat protein [1] was found to be 135 nM; in the data set on MS2 coat protein [2] it was 1110 nM.

On to “AAAAAACAUGAGGAUCACCCAUGUAAAAAAAUGGGAGGAUAUACAAAGACGAAAGUCAAAGUAGAAGGCCUGAAAA [same state 4]”, for which the results for the “apparent KD of MS2 coat protein” value with MS2 coat protein [1] and in the data set on MS2 coat protein [2] were 29.8 nM and 105 nM, respectively.

Take “AAAAAACAUGAGGAUCACCCAUGUCAAAAGACGUGAGGAUAUGUACAGACUUCGGUCUGUACAGAAGGCACGUAAA [SS1 - 1039]”: the results for the “apparent KD of MS2 coat protein” value with MS2 coat protein [1] and in the data set with MS2 coat protein [2] were 15.7 nM and 25.7 nM, respectively.

As to “AAAAAACAUGAGGAUCACCCAUGUCGAAAGACGUGAGGAUAUGUACAGACUUCGGUCUGUACAGAAGGCACGAAAA [SS1 - 1038]”, the “apparent KD of MS2 coat protein” value was found to be 18.5 nM in the data set with MS2 coat protein [1] and 60.4 nM in the data set on MS2 coat protein [2].

For the sequence “AAAAAACAUGAGGAUCACCCAUGUCGAAAGACGUGAGGAUAUGUACAGACUUCGGUCUGUACAGAAGGCACGUCAA [SS1 - 1044]”, the “apparent KD of MS2 coat protein” value in the data set with MS2 coat protein [1] came out at 17.3 nM; in the data set on MS2 coat protein [2], 24.8 nM.

As to “AAAAAACAUGAGGAUCACCCAUGUGAAAAUAUGGGAGGAUAUACAAACACGAAAGUGAAAGUAGAAGGCCUAAAAA [SS! MT 16]”, the entries for the “apparent KD of MS2 coat protein” value with MS2 coat protein [1] and in the data set with MS2 coat protein [2] were 19.7 nM and 167 nM, respectively.

Take “AAAAAACAUGAGGAUCACCCAUGUGAGAACAUGGGAGGAUAUACGAAGACGAAAGUCGAAGUAGAAGGCCUAAAAG [Garnet 79]”: the “apparent KD of MS2 coat protein” value in the data set on MS2 coat protein [1] amounted to 994 nM; in the data set on MS2 coat protein [2], 91.2 nM.

In the case of “AAAAAAUAAAAAAAGGAUAUAAAAGGUAGUACAUGAGGAUCACCCAUGUUCUACCAAAAAAUAAAAAAGAAGGAAAAAUAAAAAA [SS2: MS2 15]”, the results for the “apparent KD of MS2 coat protein” value with MS2 coat protein [1] and with MS2 coat protein [2] were 17.6 nM and 16.4 nM, respectively.

As for “AAAACACAUGAGGAUCACCCAUGUGCCUAACUCGCAGGAUAUUUCUCGAUUAAAUGAUAGGAAGAAGGGUGAUAAA [Nob's Hobby 37 - Jieux - Same State 1]”, the “apparent KD of MS2 coat protein” value is 110 nM in the data set on MS2 coat protein [1] and 39.4 nM with MS2 coat protein [2].

Take “AAAAGACAUGAGGAUCACCCAUGUAAAAACGUAGGAGGAUAUGUCUUGAAAAAAGACUUGACAGAAGGCCUGUGUC [SS1 - 53]”: the “apparent KD of MS2 coat protein” value stood at 23 nM with MS2 coat protein [1] and 34.6 nM in the data set on MS2 coat protein [2].

For the sequence “AAAAGACAUGAGGAUCACCCAUGUAAAGACGUAGGAGGAUAUGUCGUGAAAAAAGACUUGGCAGAAGGCCUGUGUC [SS1 - 40]”, the “apparent KD of MS2 coat protein” value with MS2 coat protein [1] worked out at 21.4 nM; in the data set with MS2 coat protein [2], 26.6 nM.

“AAAAGACAUGAGGAUCACCCAUGUCAAAACGUAGGAGGAUAUGUAUGGAAAACAUGCUGUACAGAAGGCCUGUGUC [SS1 - 28]”: the “apparent KD of MS2 coat protein” value in the data set with MS2 coat protein [1] is 14.2 nM; in the data set on MS2 coat protein [2] it was 17 nM.

Regarding “AAAAGACAUGAGGAUCACCCAUGUCAAAAGACAUGAGGAUAUGUACAGACUUCGGUCUGUACAGAAGGCAUGUAAA [SS1 - 1069]”, the “apparent KD of MS2 coat protein” value in the data set with MS2 coat protein [1] stood at 16.3 nM; with MS2 coat protein [2] it was 21.6 nM.

On to “AAAAGACAUGAGGAUCACCCAUGUGAAAACGUAGGAGGAUAUGUCGUGAAAAAAGACUUGGCAGAAGGCCUGUGUC [SS1 - 43]”, for which the “apparent KD of MS2 coat protein” value in the data set with MS2 coat protein [1] is 47 nM; in the data set on MS2 coat protein [2] it was 90.7 nM.

With “AAAAGACAUGAGGAUCACCCAUGUGAAAACGUGCGAGGAUAUGUAUGGAAACUAUACUGUACAGAAGGCGCGUGUC [SS1 - 82]”, the “apparent KD of MS2 coat protein” value was determined as 19.7 nM with MS2 coat protein [1] and 25.4 nM in the data set with MS2 coat protein [2].

With “AAAAGGGCGACACAGGAUAUGUUGACCCUAACAUGAGGAUCACCCAUGUGCAUUUAGGGUCGUGCGCAGAAGGGUGCAGCUCGGA [Enatin]”, the figures for the “apparent KD of MS2 coat protein” value in the data set on MS2 coat protein [1] and in the data set with MS2 coat protein [2] were 21.1 nM and 41.8 nM, respectively.

As to “AAAAUACAUGAGGAUCACCCAUGUGAGAAAAACGCAGGAUAUGCCCGUUGAAAAAGGCGGGCAGAAGGGUGCCGAA [SameState1-III]”, the “apparent KD of MS2 coat protein” value in the data set on MS2 coat protein [1] came out at 69.8 nM; with MS2 coat protein [2], 50.6 nM.

With “AAACCACAUGAGGAUCACCCAUGUGAAAAAAAUACAGGAUAUGGAAACACGAAAGUGAAACCAGAAGGGUGAAAAA [77%, Mat - Mod of Eli, 28]”, the figures for the “apparent KD of MS2 coat protein” value in the data set on MS2 coat protein [1] and with MS2 coat protein [2] were 13.4 nM and 16.6 nM, respectively.

For “AAAGAAGAAAGUCAGGAUAUGGAUGGGUAAACAUGAGGAUCACCCAUGUAUAAGAAAGAAAGAAACCAGAAGGGACAAAAGAAAA [Artaxerxes III]”, the “apparent KD of MS2 coat protein” value was determined as 34.6 nM in the data set with MS2 coat protein [1] and 135 nM with MS2 coat protein [2].

For the sequence “AAAGACACAGUGCAGGAUAUAGUAAUAGUCACAUGAGGAUCACCCAUGUUCUUUUAUAAGAACGAUUAGAAGGGCGGUGAAAAAA [SameState2 Malc#11]”, the “apparent KD of MS2 coat protein” value in the data set with MS2 coat protein [1] turned out to be 161 nM; in the data set with MS2 coat protein [2], 383 nM.

Turning to “AAAGACAUGGUGUAGGAUAUAUUAAUAGUCACAUGAGGAUCACCCAUGUUCAGAUAUCUGAACGAGUAGAAGGACGAUGAAAAAA [SameState2 Malc#4]”, the “apparent KD of MS2 coat protein” value is 251 nM in the data set on MS2 coat protein [1] and 130 nM with MS2 coat protein [2].

Regarding “AAAUAAAGGACUGAGGAUAUACCACAUGAAACAUGAGGAUCACCCAUGUAGAAAUACAGAGGGUGGUAGAAGGCAGUCCACAAAC [Same State 2.5h ( so lets mod hyphema)]”, the “apparent KD of MS2 coat protein” value in the data set with MS2 coat protein [1] is 30.1 nM; in the data set on MS2 coat protein [2], 57.2 nM.

In the case of “AAAUAAAGGACUGAGGAUAUACCACAUGAAACAUGAGGAUCACCCAUGUUAAAAAACAGAGGGUGGUAGAAGGCAGUCCACAAAC [Same State 2.5e ( so lets mod hyphema)]”, the “apparent KD of MS2 coat protein” value in the data set with MS2 coat protein [1] is 17.9 nM; with MS2 coat protein [2], 15.8 nM.

As to “AAAUAGUGCCUGGAGGAUAUGUCGCAUGACACAUGAGGAUCACCCAUGUGGUAACACAGAGGGUGGCAGAAGGCUGGGUGCAAAC [Mod 4 of Pariah 6 (Round1) by Hyphema]”, the results for the “apparent KD of MS2 coat protein” value in the data set with MS2 coat protein [1] and in the data set with MS2 coat protein [2] were 27.4 nM and 260 nM, respectively.

On to “AACAACAAUAUGAAGGAUAUCCACAACAAGACAUGAGGAUCACCCAUGUAAACUUAGAACAUACAGGAGAAGGUCAAGGGUGAAU [JR_SS002_Sub1204]”, for which the “apparent KD of MS2 coat protein” value in the data set on MS2 coat protein [1] is 221 nM; in the data set on MS2 coat protein [2], 63.2 nM.

On to “AACAAUCUAUCUGAGGAUAUAUGUCGAAAGACAUGAGGAUCACCCAUGUGAAAACAUGAAAAAACAUAGAAGGCAGAUAGAUUGA [SS2: 1136]”, for which the results for the “apparent KD of MS2 coat protein” value with MS2 coat protein [1] and with MS2 coat protein [2] were 28.5 nM and 54.3 nM, respectively.

As to “AACAAUCUAUCUGAGGAUAUCAUGUCAAAGACAUGAGGAUCACCCAUGUAGCAGGAAACUGCUUAUGAGAAGGCAGAUAGAUUGA [SS2: 1114]”, the “apparent KD of MS2 coat protein” value worked out at 69.4 nM in the data set with MS2 coat protein [1] and 450 nM with MS2 coat protein [2].

As for “AACAAUCUAUCUGAGGAUAUCAUGUCAAAGACAUGAGGAUCACCCAUGUGCAGGAAAACUGCUCAUGAGAAGGCAGAUAGAUUGA [SS2: 1110]”, the “apparent KD of MS2 coat protein” value with MS2 coat protein [1] is 464 nM; in the data set with MS2 coat protein [2], 167 nM.

For the sequence “AACUAACAUGAGGAUCACCCAUGUAUUCAAACAUGAGGAUAUAUAACACAUCAUCGACGGAUAGAAGGCAUAAAUA [JR_SS001_Sub1206]”, the “apparent KD of MS2 coat protein” value amounted to 92 nM with MS2 coat protein [1] and 86.6 nM with MS2 coat protein [2].
